Data as given in the nanobody polyreactivity screen of Harvey et al. (2022).

Experiment: yeast display, Sf9 membrane polyspecificity reagent, FACS + sequencing; frameworks hold sequencing errors
How it was run: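 A nanobody's polyreactivity label depends on the gate it was sorted from. Yeast display cells were stained with 10% biotinylated, detergent-solubilized Sf9 membrane reagent for 1 hour at 4 °C, enriched on streptavidin microbeads and sorted by FACS. The low and high (top ~1%) gates were set on anti-HA fluorescence for expression and streptavidin fluorescence for reagent binding.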

Sequence | polyreactivity (PSR sort gate)
QVQLVESGGGLVQAGGSLRLSCAASGRIFNLYAMGWYRQAPGKERELVAAISSGGSTYYADSVKGRFTISRDNAKNTVYLQMNSLKPEDTAVYYCAAKNGDRYARGYWGQGTQVTVSS | high polyreactivity
QVQLVESGGGLVQAGGSLRLSCAASGRIFNLYAMGWYRQAPGKERELVAAISWRGGSTYYADSVKGRFTISRDNAKNTVYLQMNSLKPEDTAVYYCAATFFTYVYRYYYWGQGTQVTVSS | high polyreactivity
QVQLVESGGGLVQAGGSLRLSCAASGRIFNNYAMGWYRQAPGKERELVASITSGGSTNYADSVKGRFTISRDNAKNTVYLHMNSLKPEDTAVYYCNAPRGNRYHTGGYWGQGTQVTVSS | low polyreactivity
QVQLVESGGGLVQAGGSLRLSCAASGRIFNQYGMGWYRQAPGKERELVAAIRSGDSTNYADSVKGRFTISRDNAKNTVYLQMNSLKPVDTAVYYFNAYLSPKQPLSPPDPTFEGGYWGQGTQVTVSS | low polyreactivity
QVQLVESGGGLVQAGGSLRLSCAASGRIFNRNAMGWYRQAPGKERELVAAISSSGGSTYYADSVKGRFTISRDTAKNTVYLQMNSLKPEDTAVYYCAAVTQSYGYYYWGQGTQVTVSS | high polyreactivity
QVQLVESGGGLVQAGGSLRLSCAASGRIFNRNAMGWYRQAPGKERELVAAITRGGRTNYADSVKGRFTISRDNAQNTVYLHMNSLKPEDTAVYYCAAAYYGSHCRYDYWGQGTQVTVSS | high polyreactivity
QVQLVESGGGLVQAGGSLRLSCAASGRIFNRNAMGWYRQAPGKERELVATISFNDGSTYYADSVKGRFRISRDIAKNTVYLQMNSLKPEDTAVYYCAKEGYVFEYDYWGKGTQVTVSS | low polyreactivity
QVQLVESGGGLVQAGGSLRLSCAASGRIFNRYAMGWYRQAPGKERELVAAINYRGSSTYYADSVKGRFTISRDNAKNTGYLQMNSLKPEVTAVYYCKTYGQTDTYWRYYYWGQGTQVTVSS | high polyreactivity
QVQLVESGGGLVQAGGSLRLSCAASGRIFNRYAMGWYRQAPGKERELVAAISASGDNTYYADSVKGRFTISRDNAKKNVYLQMNSLKPEDTAVYYCAARYYTYLHFRMYYWGQGTQVTVSS | high polyreactivity
QVQLVESGGGLVQAGGSLRLSCAASGRIFNSYAMGCYRQAPGKERELVAAINWTDVSTYYADSVKGRFTISRDNAKNTVYLQMNSLKPEDTAVYYCAAVRWGSYTLSDDYWGQGTQVTVSS | low polyreactivity
QVQLVESGGGLVQAGGSLRLSCAASGRIFNWYGMGWYRQAPGKERELVATISSSGDSTYYADSVKGRFTISRDNAKNTVYLQMNSLKPEDTAVYYCAKRARYKFGYWGQGTQVTVSS | high polyreactivity
QVQLVESGGGLVQAGGSLRLSCAASGRIFNYNALGWYRQAPGKESELVATITYIGTGTYYADSVKGRFTISRDNAKTTVYLQMNSLKPEDTAVYYCAASYRSRVWWRFDYWGQGTQVTVSS | high polyreactivity
QVQLVESGGGLVQAGGSLRLSCAASGRIFNYYAMGSYRQAPGKERDLVAAITSRGGSTYYADSVKGRFTISRDNAKNTVYLQMNSLNPEDTAVYYCNTRVWYPGTIHPVDYWGQGTQVTVSS | low polyreactivity
QVQLVESGGGLVQAGGSLRLSCAASGRIFNYYAMGWYRLAPGKERELVAAINSGGSTYADSVKGRFTISRDNAKNTVYLEMNSLKPEDTAVYYCANDGQLQSGRERPSGYDHWGQGTQVTVSS | low polyreactivity
QVQLVESGGGLVQAGGSLRLSCAASGRIFNYYAMGWYRQAPGKEMELVAVITYSAGRTYYADSVKGRFTISRDNAKNTVYLQMNSLKPEDTAVYYCNADGWVSVSKHYYYWGQGTQVTVSS | low polyreactivity
QVQLVESGGGLVQAGGSLRLSCAASGRIFNYYAMGWYRQAPGKERELVAAINSGGSTYADSVKGRFTISRDNAKNTVYLQMNSLKPEDTAVYYCAKDGQLQSGRERPSGYDHWGQGTQVTVSS | low polyreactivity
QVQLVESGGGLVQAGGSLRLSCAASGRIFNYYAMGWYRQAPGKERELVAAINWSGVRTYYADSVKGRFTISRDNAKNTVYLQMNSLKPEDTEVYYCARDAGAAYGYYSWGQGTQVTVSS | high polyreactivity
QVQLVESGGGLVQAGGSLRLSCAASGRIFNYYAMGWYRQAPGKERELVASITSRGGTTYYADSVKGRFTISRDKAKKTVYLQMNSLIPEDTAVYYCAAFTRPVSRRSRMNYWGQGTQVTVSS | high polyreactivity
QVQLVESGGGLVQAGGSLRLSCAASGRIFPAYVMGWYRQAHGKERELVATIDNGGGTYYADSVKGRFTISRDNAKNTVYLQMNSLKPEDTAVYYCARDRHVRWGLKMDYSGQGTQVTVSS | low polyreactivity
QVQLVESGGGLVQAGGSLRLSCAASGRIFPDNAMGWYRQAHGKERELVAVITYSGGSTYYADSVKGRFTISRDNAKNTVYLQMNSLKPEDTAVYYCAARDYYIWFAEVDYWGQGTQVTVSS | low polyreactivity
QVQLVESGGGLVQAGGSLRLSCAASGRIFPDYAMGWYRQAPGKERELVAAISSSGGRTYYADSVKGRFTISRDNAKNTVYLQMNSLKPEDTAVYYCAARGSYTSIFDYWGQGTQVTVSS | high polyreactivity
QVQLVESGGGLVQAGGSLRLSCAASGRIFPFYAMGWYIQAPGKERELVAAISRSGRTNYADSVKGRFTISRDNAKNTVFLQMNSLKPEDTAVYYCNADYYLFDFDSWGQGTQVTVSS | low polyreactivity

Sequence | polyreactivity (PSR sort gate)
QVQLVESGGGLVQAGGSLRLSCAASGRIFPFYAMVWYRQAPGKERELVAAITTSGGSTYYADSVKGRFTISRDNAKNTVYLQMNRLKPEDTAVYYCNKRLGLELAPWEMNYWGQGTQVTVSS | low polyreactivity
QVQLVESGGGLVQAGGSLRLSCAASGRIFPGYAMGWYRQAPGKEREFVAAITASGGTTYYADSVKGRFTISRDNAKNTVYLQMNSLKPEDTAVYYCAVYDWRYYLGKLMEYWGQGTQVTVSS | high polyreactivity
QVQLVESGGGLVQAGGSLRLSCAASGRIFPGYAMGWYRQAPGKERELVAAISKGGGSKYYADSVKGRFTISRDNAKNTVYLQMNSLKTEDTAVYYCAAQSYPRSYGLDYWGQGTQVTVSS | high polyreactivity
QVQLVESGGGLVQAGGSLRLSCAASGRIFPGYAMGWYRQAPGKERELVAAISTNGGRTYYADSVKGRFTISRDNAKNTVYLQMNSLKPEDTADYYCAAESAYDAYDYWGQGTQVTVSS | high polyreactivity
QVQLVESGGGLVQAGGSLRLSCAASGRIFPGYDMGWYRQAPGKERELVAAISASGGSTYYADSVKGRFTISRDNAKNTVYLQMNSLKPEDTAVYYCNAVYRLIRFDYWGQGTQVTVSS | high polyreactivity
QVQLVESGGGLVQAGGSLRLSCAASGRIFPGYVMGWYRQAHGKERELVAAITRGGSTYYADSVKGRFTISRDNAKNTVYLQMNSLKPEDTAVYYCAAKHSHIHYNYWGQGTQVTVSS | low polyreactivity
QVQLVESGGGLVQAGGSLRLSCAASGRIFPHYAMGWFRQAPGKERELVAAISSGGRTNYADSVKGRFTISRDNAKNTVYLQMNSLKREDSAVYYCAAEAPFYVIGRRYRGYDYWGQGTQVTVSS | high polyreactivity
QVQLVESGGGLVQAGGSLRLSCAASGRIFPHYTMGWYRQAPGKERELVATISGRGGSTYYADSVKGRFTISRDIAKNTVYLQMNSLKPEDTAVYYCAREGCRRYAGLYYWGQGTQVTVSS | high polyreactivity
QVQLVESGGGLVQAGGSLRLSCAASGRIFPKYAMGGDRQAPGTERPLVAAISSSGGSKYYADSVKGRFTISRDNAKNTVYFQMNSLKPEDTAVYYCNVDKATRDRYPGFDYWGQGTQVTVSS | high polyreactivity
QVQLVESGGGLVQAGGSLRLSCAASGRIFPKYTMGWYRQAPGKERELVASINSSGRTTYADSVKGRFTITRDNAKNTVYLQMNSLKPEDTAVYYCAKRVFSARGYGYWGQGTQVTVSS | low polyreactivity
QVQLVESGGGLVQAGGSLRLSCAASGRIFPPNAMGWYRQAPGKERELVAAITGSGGSTYYADSVKGRFTITRDNAKNTVYLQKNSLKPADTAVYYCAVESLGRVSRGYDYWGQGTQVTVSS | low polyreactivity
QVQLVESGGGLVQAGGSLRLSCAASGRIFPPYAMGWYRQAPGKERELVAAISSSTTSTYYADSVKGRFTISRDNAKNTVYLQMNSLKPEDTGVYYCAAQPYRAAFPYSSRRHLQYEYWGQGTQVTVSS | low polyreactivity
QVQLVESGGGLVQAGGSLRLSCAASGRIFPPYAMGWYRQAPGKERELVATISYTGGSTYYADSVKGRFTISRDNAKNTVYLQMNRLKPEDTAVYYCNAEYYYWNREGDYWGQGTQVTVSS | low polyreactivity
QVQLVESGGGLVQAGGSLRLSCAASGRIFPPYDMGWYRQATGKEREFVAAIDWTGGSTYYADSVKGRFTISRDNAKNTVYLQMNSLKPEDTAVYYCNAEQSYRGVGWRYDYWGQGTQVTVSS | low polyreactivity
QVQLVESGGGLVQAGGSLRLSCAASGRIFPQYAMGWSRQAPGKERELVAGITSVGSTYYADSVKGRFTISRDNAKNTVYLQMNSLKPEDTAVYYCAAVPSRYVRANRRTYRYYYWGQGTQVTVSS | high polyreactivity
QVQLVESGGGLVQAGGSLRLSCAASGRIFPRNAMGWYRQAPGKERELVAAISSGGGGTYYADSVKGRFTISRDNAKNTVYLQMNSLKPEDTAVYYCNAAYTYVTAWYYYWGQGTQVTVSS | high polyreactivity
QVQLVESGGGLVQAGGSLRLSCAASGRIFPRNTMGRYRQAPGKERELVAGITSGGGTYYADSVKGRFTISRDNAKNTVYFQMNRLKPEDTAVFYCAARPWRSRYYGGLGRRFDYWGQGTQVTVSS | high polyreactivity
QVQLVESGGGLVQAGGSLRLSCAASGRIFPRYAMGWYRQAPGKERELVATISSGGSTYYADSVKGRFTISRDNAKNTVYLQMNSLKPEDTAVYYCAARKRPYTVINGMDYWGQGTQVTVSS | low polyreactivity
QVQLVESGGGLVQAGGSLRLSCAASGRIFPRYAMGWYRQAPGKERQLVAAITSGDSTHYADSVKGRFTISRDNAKNTVYLQMNSLKPEDTAVYYCAAKYPRYGRHAYGYWGQGTQVTVSS | high polyreactivity
QVQLVESGGGLVQAGGSLRLSCAASGRIFPSYAMGWYRQAPGKERELVAAISYSGASTYYADSVKGRFTISRDNAKNTVYLQMNSLKPEDTAVYYCYQLVEEDYWGLGTQVTVSS | low polyreactivity
QVQLVESGGGLVQAGGSLRLSCAASGRIFPTYAMGWYRQAPGKERELVAGITSGGRTNYADSVKGRFTISRDNAKNTVYLQMNSLKPEDTAVYYCAKRVWPRDQYGKRNPRMDYWGQGTQVTVSS | high polyreactivity
